Laboratory results reported in PMC9865707, “Structural Insights of the DciA Helicase Loader in Its Relationship with DNA”.

B1: ssDNA oso23 (ssDNA)
DNA: AAGCGTGGTGAAACCTACCTCTGATTCGAAACCTTCACTTTACGTGGTCTGGCGTGGTGAATGTTCGTCGGCGTGCTCGA
B2: foDNA oso23/oso18 (dsDNA)
DNA 1: B1 DNA
DNA 2: CCAGGAATACGGCAAGTTGGAGGCCGGGCTGGATGGAGACTAAGCTTTGGAAGTGAAGGTTTCGAATCAGAGGTAGGTTTCACCACGC

Experiments:
VcDnaB [1] = target: T1, VcDnaB (Vibrio cholerae, UniProt A0A085R2T8 1-468); assay: BLI; 1 mM ATP?; 100 nM VcDnaB + 25-100 nM VcDciA; loading increased, maximal at 25 nM; BLI: 50 mM Hepes pH 7.0, 150 mM NaCl, 0.1% Tween, 1 mM ATP, temperature not stated; NMR: 20 mM phosphate pH 5.6, 50 mM NaCl, 303 K (also 293 K), 26 uM protein; details: protein: recombinant; chain copies: 6; label: 5' biotin
VcDnaB [2] = target: T1, VcDnaB; assay: BLI; ATP; + VcDciA 25-100 nM; comparable to ssDNA; BLI: 50 mM Hepes pH 7.0, 150 mM NaCl, 0.1% Tween, 1 mM ATP, temperature not stated; NMR: 20 mM phosphate pH 5.6, 50 mM NaCl, 303 K (also 293 K), 26 uM protein; details: protein: recombinant; chain copies: 6; label: 5' biotin on strand 1; fork, 38 nt hybridized zone; non-complementary tails (strand 1 3' side, strand 2 5' side); 5' overhang 2 nt (AA) of strand 1

Binder | binding result (VcDnaB [1]) | binding result (VcDnaB [2])
B1 | binds | –
B2 | – | binds
